B1: 14-3-3 protein sigma (Homo sapiens), P31947 (parent)
chain: MERASLIQKAKLAEQAERYEDMAAFMKGAVEKGEELSCEERNLLSVAYKNVVGGQRAAWRVLSSIEQKSNEEGSEEKGPEVREYREKVETELQGVCDTVLGLLDSHLIKEAGDAESRVFYLKMKGDYYRYLAEVATGDDKKRIIDSARSAYQEAMDISKKEMPPTNPIRLGLALNFSVFHYEIANSPEEAISLAKTTFDEAMADLHTLSEDSYKDSTLIMQLLRDNLTLWTADNAGEEGGEAPQEPQS
partner: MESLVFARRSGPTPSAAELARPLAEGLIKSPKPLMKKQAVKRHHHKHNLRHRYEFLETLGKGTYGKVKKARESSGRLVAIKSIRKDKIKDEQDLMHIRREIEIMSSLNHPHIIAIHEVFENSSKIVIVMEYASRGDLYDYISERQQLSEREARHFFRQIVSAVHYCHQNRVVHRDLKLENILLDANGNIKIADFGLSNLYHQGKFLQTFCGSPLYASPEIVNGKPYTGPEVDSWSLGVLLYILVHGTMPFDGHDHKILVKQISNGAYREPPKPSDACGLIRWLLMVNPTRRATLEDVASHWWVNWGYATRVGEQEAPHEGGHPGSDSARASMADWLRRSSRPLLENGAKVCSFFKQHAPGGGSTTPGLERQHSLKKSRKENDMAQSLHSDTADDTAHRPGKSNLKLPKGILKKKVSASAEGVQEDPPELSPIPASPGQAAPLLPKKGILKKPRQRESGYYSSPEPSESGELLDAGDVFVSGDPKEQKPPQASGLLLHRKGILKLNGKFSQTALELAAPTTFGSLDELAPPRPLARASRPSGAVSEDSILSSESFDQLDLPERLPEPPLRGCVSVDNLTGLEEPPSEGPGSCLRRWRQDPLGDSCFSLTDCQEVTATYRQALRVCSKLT
B2: 14-3-3 protein sigma (Homo sapiens), P31947 (parent)
chain: B1 chain
partner: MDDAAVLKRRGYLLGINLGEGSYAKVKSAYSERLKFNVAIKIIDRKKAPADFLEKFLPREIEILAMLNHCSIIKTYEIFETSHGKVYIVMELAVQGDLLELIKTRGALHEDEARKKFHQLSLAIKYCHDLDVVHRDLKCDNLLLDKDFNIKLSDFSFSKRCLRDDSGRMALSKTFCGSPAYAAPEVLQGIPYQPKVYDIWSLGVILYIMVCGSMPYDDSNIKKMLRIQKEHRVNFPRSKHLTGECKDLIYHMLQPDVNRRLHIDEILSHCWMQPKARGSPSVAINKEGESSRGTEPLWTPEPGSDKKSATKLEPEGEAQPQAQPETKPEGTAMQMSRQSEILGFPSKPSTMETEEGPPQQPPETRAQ
B3: 14-3-3 protein sigma (Homo sapiens), P31947 (parent)
chain: B1 chain
partner: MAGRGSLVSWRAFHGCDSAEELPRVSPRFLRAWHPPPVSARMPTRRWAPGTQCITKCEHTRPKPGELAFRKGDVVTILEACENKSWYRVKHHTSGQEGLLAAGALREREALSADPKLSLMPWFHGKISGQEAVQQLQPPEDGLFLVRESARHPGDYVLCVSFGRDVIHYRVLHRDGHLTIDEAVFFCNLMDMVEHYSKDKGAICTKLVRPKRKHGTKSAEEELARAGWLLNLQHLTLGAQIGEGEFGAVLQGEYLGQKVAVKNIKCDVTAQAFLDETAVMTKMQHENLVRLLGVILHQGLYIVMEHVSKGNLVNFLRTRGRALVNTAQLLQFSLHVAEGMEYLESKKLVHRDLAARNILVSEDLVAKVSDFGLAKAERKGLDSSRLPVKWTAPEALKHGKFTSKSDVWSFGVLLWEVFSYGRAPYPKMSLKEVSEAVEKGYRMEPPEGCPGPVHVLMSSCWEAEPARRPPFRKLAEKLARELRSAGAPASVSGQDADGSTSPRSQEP
B4: 14-3-3 protein sigma (Homo sapiens), P31947 (parent)
chain: B1 chain
partner: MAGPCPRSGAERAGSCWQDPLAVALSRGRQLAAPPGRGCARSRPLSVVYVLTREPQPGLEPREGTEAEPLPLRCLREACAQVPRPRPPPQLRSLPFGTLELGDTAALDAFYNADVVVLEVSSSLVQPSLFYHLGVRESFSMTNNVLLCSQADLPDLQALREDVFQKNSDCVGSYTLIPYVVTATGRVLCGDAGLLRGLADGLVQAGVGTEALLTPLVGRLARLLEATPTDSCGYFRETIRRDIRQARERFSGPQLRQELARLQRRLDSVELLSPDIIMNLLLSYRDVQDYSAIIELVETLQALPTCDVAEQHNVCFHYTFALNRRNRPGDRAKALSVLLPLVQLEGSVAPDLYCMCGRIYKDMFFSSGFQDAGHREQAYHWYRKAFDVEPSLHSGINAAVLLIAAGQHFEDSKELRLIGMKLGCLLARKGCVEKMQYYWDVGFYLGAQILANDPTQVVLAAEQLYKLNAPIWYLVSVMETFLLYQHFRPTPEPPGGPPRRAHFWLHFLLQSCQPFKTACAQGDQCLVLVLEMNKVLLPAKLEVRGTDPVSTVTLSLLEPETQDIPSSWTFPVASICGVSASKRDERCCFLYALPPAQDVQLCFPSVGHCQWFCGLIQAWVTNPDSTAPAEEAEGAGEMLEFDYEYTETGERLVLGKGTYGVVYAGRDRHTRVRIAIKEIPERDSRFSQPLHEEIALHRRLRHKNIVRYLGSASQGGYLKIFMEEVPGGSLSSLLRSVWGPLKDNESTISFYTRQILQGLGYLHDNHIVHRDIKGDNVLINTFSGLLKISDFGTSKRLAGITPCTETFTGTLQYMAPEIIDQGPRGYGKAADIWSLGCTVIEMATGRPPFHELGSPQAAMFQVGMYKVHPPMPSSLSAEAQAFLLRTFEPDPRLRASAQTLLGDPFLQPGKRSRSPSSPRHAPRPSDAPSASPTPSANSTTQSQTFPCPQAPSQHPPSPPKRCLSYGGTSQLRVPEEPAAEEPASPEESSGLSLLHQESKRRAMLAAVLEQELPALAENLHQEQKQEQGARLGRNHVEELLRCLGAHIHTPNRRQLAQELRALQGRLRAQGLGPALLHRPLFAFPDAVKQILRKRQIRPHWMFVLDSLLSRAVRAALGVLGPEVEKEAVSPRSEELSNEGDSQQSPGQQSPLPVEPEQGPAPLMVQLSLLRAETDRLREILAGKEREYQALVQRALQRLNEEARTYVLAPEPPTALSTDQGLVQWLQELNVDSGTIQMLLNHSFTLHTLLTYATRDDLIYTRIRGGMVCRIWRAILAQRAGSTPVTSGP
B5: 14-3-3 protein sigma (Homo sapiens), P31947 (parent)
chain: B1 chain
partner: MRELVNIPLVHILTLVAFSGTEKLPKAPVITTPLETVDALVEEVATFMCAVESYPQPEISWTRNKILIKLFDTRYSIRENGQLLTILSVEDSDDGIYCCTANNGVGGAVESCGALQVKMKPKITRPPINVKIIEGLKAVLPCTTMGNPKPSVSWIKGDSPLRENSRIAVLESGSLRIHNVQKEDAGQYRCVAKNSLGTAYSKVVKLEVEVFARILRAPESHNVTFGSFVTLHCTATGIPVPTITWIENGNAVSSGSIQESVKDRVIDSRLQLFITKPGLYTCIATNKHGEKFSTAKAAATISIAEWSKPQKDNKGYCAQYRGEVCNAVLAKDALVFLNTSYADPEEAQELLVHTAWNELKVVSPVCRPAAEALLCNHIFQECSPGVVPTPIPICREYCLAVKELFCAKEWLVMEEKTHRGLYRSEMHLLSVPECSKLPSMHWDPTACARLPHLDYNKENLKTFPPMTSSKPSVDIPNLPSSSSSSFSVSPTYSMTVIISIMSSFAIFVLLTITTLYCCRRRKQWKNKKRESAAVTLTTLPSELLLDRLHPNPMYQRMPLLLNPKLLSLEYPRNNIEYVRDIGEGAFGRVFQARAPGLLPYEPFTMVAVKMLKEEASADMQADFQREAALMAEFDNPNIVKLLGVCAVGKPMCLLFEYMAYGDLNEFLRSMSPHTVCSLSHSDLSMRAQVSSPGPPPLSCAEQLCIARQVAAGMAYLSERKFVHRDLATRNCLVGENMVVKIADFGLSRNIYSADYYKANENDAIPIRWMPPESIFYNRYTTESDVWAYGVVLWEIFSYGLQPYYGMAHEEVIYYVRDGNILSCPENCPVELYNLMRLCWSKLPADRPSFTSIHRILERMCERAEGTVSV
B6: 14-3-3 protein sigma (Homo sapiens), P31947 (parent)
chain: B1 chain
partner: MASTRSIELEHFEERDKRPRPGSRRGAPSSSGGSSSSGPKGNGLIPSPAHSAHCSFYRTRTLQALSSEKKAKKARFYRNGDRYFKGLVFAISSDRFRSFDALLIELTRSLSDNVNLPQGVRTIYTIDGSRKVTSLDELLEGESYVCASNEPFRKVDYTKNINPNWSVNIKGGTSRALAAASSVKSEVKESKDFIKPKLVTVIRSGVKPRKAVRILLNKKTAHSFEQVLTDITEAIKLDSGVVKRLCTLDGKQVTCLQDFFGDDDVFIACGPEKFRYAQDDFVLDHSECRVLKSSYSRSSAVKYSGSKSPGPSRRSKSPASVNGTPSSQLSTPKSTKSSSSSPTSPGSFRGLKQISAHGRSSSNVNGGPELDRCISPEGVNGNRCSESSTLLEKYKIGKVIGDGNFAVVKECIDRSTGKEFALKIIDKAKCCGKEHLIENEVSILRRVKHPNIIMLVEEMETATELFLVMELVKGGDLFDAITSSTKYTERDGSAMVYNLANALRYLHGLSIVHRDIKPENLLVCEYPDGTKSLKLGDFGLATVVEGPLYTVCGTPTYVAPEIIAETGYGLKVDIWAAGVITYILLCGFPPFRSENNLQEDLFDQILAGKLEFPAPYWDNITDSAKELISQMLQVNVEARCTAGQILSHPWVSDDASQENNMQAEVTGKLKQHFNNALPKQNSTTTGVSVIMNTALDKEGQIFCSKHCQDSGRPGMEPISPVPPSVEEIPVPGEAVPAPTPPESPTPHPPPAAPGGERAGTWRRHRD

Variants of: B1
Settings: with nuak2_human NUAK2, Q9H093

| effect of a mutation on the interaction | Variant |
| --- | --- |
| decreasing interaction strength | MERASLIQKAKLAEQAERYEDMAAFMKGAVEKGEELSCEERNLLSVAYENVVGGQEAAWRVLSSIEQKSNEEGSEEKGPEVREYREKVETELQGVCDTVLGLLDSHLIKEAGDAESRVFYLKMKGDYYRYLAEVATGDDKKRIIDSARSAYQEAMDISKKEMPPTNPIRLGLALNFSDFHYEIANSPEEAISLAKTTFDEAMADLHTLSEDSYKDSTLIMQLLRDNLTLWTADNAGEEGGEAPQEPQS [K49E;R56E;V178D] |

Variants of: B2
Settings: with tssk1_human TSSK1B

| effect of a mutation on the interaction | Variant |
| --- | --- |
| decreasing interaction strength | MERASLIQKAKLAEQAERYEDMAAFMKGAVEKGEELSCEERNLLSVAYENVVGGQEAAWRVLSSIEQKSNEEGSEEKGPEVREYREKVETELQGVCDTVLGLLDSHLIKEAGDAESRVFYLKMKGDYYRYLAEVATGDDKKRIIDSARSAYQEAMDISKKEMPPTNPIRLGLALNFSDFHYEIANSPEEAISLAKTTFDEAMADLHTLSEDSYKDSTLIMQLLRDNLTLWTADNAGEEGGEAPQEPQS [K49E;R56E;V178D] |

Variants of: B3
Settings: with matk_human MATK

| effect of a mutation on the interaction | Variant |
| --- | --- |
| decreasing interaction strength | MERASLIQKAKLAEQAERYEDMAAFMKGAVEKGEELSCEERNLLSVAYENVVGGQEAAWRVLSSIEQKSNEEGSEEKGPEVREYREKVETELQGVCDTVLGLLDSHLIKEAGDAESRVFYLKMKGDYYRYLAEVATGDDKKRIIDSARSAYQEAMDISKKEMPPTNPIRLGLALNFSDFHYEIANSPEEAISLAKTTFDEAMADLHTLSEDSYKDSTLIMQLLRDNLTLWTADNAGEEGGEAPQEPQS [K49E;R56E;V178D] |

Variants of: B4
Settings: with m3k6_human MAP3K6, O95382

| effect of a mutation on the interaction | Variant |
| --- | --- |
| decreasing interaction strength | MERASLIQKAKLAEQAERYEDMAAFMKGAVEKGEELSCEERNLLSVAYENVVGGQEAAWRVLSSIEQKSNEEGSEEKGPEVREYREKVETELQGVCDTVLGLLDSHLIKEAGDAESRVFYLKMKGDYYRYLAEVATGDDKKRIIDSARSAYQEAMDISKKEMPPTNPIRLGLALNFSDFHYEIANSPEEAISLAKTTFDEAMADLHTLSEDSYKDSTLIMQLLRDNLTLWTADNAGEEGGEAPQEPQS [K49E;R56E;V178D] |

Variants of: B5
Settings: with musk_human MUSK

| effect of a mutation on the interaction | Variant |
| --- | --- |
| decreasing interaction strength | MERASLIQKAKLAEQAERYEDMAAFMKGAVEKGEELSCEERNLLSVAYENVVGGQEAAWRVLSSIEQKSNEEGSEEKGPEVREYREKVETELQGVCDTVLGLLDSHLIKEAGDAESRVFYLKMKGDYYRYLAEVATGDDKKRIIDSARSAYQEAMDISKKEMPPTNPIRLGLALNFSDFHYEIANSPEEAISLAKTTFDEAMADLHTLSEDSYKDSTLIMQLLRDNLTLWTADNAGEEGGEAPQEPQS [K49E;R56E;V178D] |

Variants of: B6
Settings: with dclk2_human DCLK2, Q8N568

| effect of a mutation on the interaction | Variant |
| --- | --- |
| decreasing interaction strength | MERASLIQKAKLAEQAERYEDMAAFMKGAVEKGEELSCEERNLLSVAYENVVGGQEAAWRVLSSIEQKSNEEGSEEKGPEVREYREKVETELQGVCDTVLGLLDSHLIKEAGDAESRVFYLKMKGDYYRYLAEVATGDDKKRIIDSARSAYQEAMDISKKEMPPTNPIRLGLALNFSDFHYEIANSPEEAISLAKTTFDEAMADLHTLSEDSYKDSTLIMQLLRDNLTLWTADNAGEEGGEAPQEPQS [K49E;R56E;V178D] |

Reference: IntAct's records for PubMed 36931259
